From US20110301228A1 come the findings set out here.

This assay concerns the target 5-FAM/QXL520 labeled MMP substrate FRET peptide (SensoLyte 520 MMP-1 Assay Kit, AnaSpec). The assay can be described thus: cell-based or functional assay.

As to “recombinant human MMP1 (wild-type), secreted by AdhGRE.MMP1-infected HTM cells and activated with APMA (active form, 41 kDa) (from UniProt P03956 100-469) (enzyme)”, the relative fluorescence units released on cleavage of the FRET peptide (medium of AdhGRE.MMP1-infected, DEX-treated cells) (relative fluorescence units) was found to be 59000 and the relative fluorescence units released on cleavage of the FRET peptide (medium of AdhGRE.MMP1-infected, untreated cells) (relative fluorescence units) is 5710.
